Where no end group is shown, it is not given here.

This note sets out measurements from paper PMC11785957 (2025).

The target of the test is human TLR3 ectodomain (Wuxi Biologics, C-terminal His and Avi tags) (human, UniProt O15455 24-704, biotinylated (for yeast display)). Kind of test: BLI. For orientation: BLI is a label-free optical method that tracks binding on a fibre tip over time.

B1: minibinder 8 (designed binder)
chain: SLEEEAERVVEELVKEFNLSETQEIALRRYAEFAAKAGASEEVIEELLRRVAERLS
modifications: also: biotinylated (site not given here)
Usually Kd stands for a measure of binding affinity in units of concentration. A low value points to higher affinity. B1 registered a Kd of 1200 nM.

B2: minibinder 7 (designed binder)
chain: SAMERYVKVLLRTAELAREAGDPEDVRKALEKAELVARILHNEELKEEIREVEEEL
modifications: also: biotinylated (site not given here)
In the case of B2, the dissociation constant (Kd) was 440 nM.
